Kd data for 5 molecules are collected here from publication PMC4963197 (2016).

Square brackets hold non-standard residues; d marks the D form. Ends that are not written are not given here. pS = N[C@@H](COP(=O)(O)O)C(=O)O

The Kd is the concentration at which binding is half-saturated. Read a high Kd as a looser complex.

For test [1], the target named is T1, G-actin (UniProt P68135 1-377). Put plainly: FP; LatB-actin.
Test [2] addresses T1, G-actin. The experiment in a line: FP; LatB-actin; phospho-S98.

B1: FAM-MRTF-A(67–98) (peptide)
chain: {FAM}-LSERKNVLQLKLQQRRTREELVSQGIMPPLKS
For B1, the Kd in the test with G-actin [1] turned out to be 1120 nM.

B2: FAM-MRTF-A(62–104) S98D (peptide)
chain: {FAM}-PNLPPLSERKNVLQLKLQQRRTREELVSQGIMPPLKDPAAFHE
Regarding B2, the Kd in the test with G-actin [1] worked out at 930 nM.

B3: FAM-MRTF-A(62–104) (peptide)
chain: {FAM}-PNLPPLSERKNVLQLKLQQRRTREELVSQGIMPPLKSPAAFHE
B3: the Kd with G-actin [1] worked out at 1050 nM.

B4: FAM-MRTF-A(67–98) phosphorylated at S98 (peptide)
chain: {FAM}-LSERKNVLQLKLQQRRTREELVSQGIMPPLK[pS]
Regarding B4, the Kd in the test with G-actin [2] was 630 nM.

B5: FAM-MRTF-A(62–104) phosphorylated at S98 (peptide)
chain: {FAM}-PNLPPLSERKNVLQLKLQQRRTREELVSQGIMPPLK[pS]PAAFHE
In the test with G-actin [2], B5 displayed a Kd of 850 nM.
